Assay results as given in the RNAGym collection of RNA variant scans (doi:10.1073/pnas.2313332121).
Fewer inactive variants are shown than the library holds.

B1: TPR 5TU (parent)
chain: GGAUCUUCUCGAUCUAACAAAAAAGACAAAUCUGCCACAAAGCUUGAGAGCAUCUUCGGAUGCAGAGGCGGCAGCCUUCGGUGGCGCGAUAGCGCCAACGUUCUCAACUAUGACACGCAAAACGCGUGCUCCGUUGAAUGGAGUUUAUCAUG

Variants of: B1
Experiment: polymerase ribozyme fitness, log enrichment relative to wild type (log ratio); higher = more active; in vitro selection for triplet polymerase activity
Outline: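 Mutant libraries of both subunits of a heterodimeric triplet polymerase ribozyme were PCR-built, transcribed, and selected once in triplicate, with frozen incubation at −7 °C and capture of gel-excised extended constructs on streptavidin beads before RT-PCR. Illumina sequencing of input and output libraries was filtered to genotypes with ≥10 input reads and ≥1 read per output. Fitness is the logarithm of genotype enrichment over wild-type enrichment, using inverse-variance-weighted replicate averages. The logarithm is base 2.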

| Variant | polymerase ribozyme fitness (log ratio) |
| --- | --- |
| A40U C87G G133U | ≤ -4.2 |
| A40C G83U A119G | -1.55 |
| A39C A107C G141C | ≤ -4.2 |
| A40G G71U G86U | ≤ -4.2 |
| A40U G58A | 0.274 |
| A41C U56A G70U C75G C93U C132U G136C | ≤ -4.2 |
| A40C A47U A60U | -1.07 |
| C38U G68C G88A A147C | ≤ -4.2 |
| A41G G84U C116U G136U | -3.6 |
| A40C G92A A97U | -3.34 |
| A41G C57A | 0.0695 |
| A41C A47C G59A A60G C85A U127G A137G | ≤ -4.2 |
| A40G C51A G83A C96U U101G | ≤ -4.2 |
| A40C C76U G86A A115C U135A A142G | -3.94 |
| A41G C57U A89U | 0.785 |
| A40U A52U G126U U135G A142G | ≤ -4.2 |
| A40G U56A C99U | -2.66 |
| A39U C96U | -2.1 |
| A41C A49C U56A G67C C76G C87A | ≤ -4.2 |
| A39U U127C | -4 |
| A41C G50A A52G A120C | -2.96 |
| A39U G84A C123G | -2.9 |
| C38U G83A C99G | -3.15 |
| A41C C93A A97C | -3.96 |

| Variant | polymerase ribozyme fitness (log ratio) |
| --- | --- |
| A41C C43U A97G C108U G140U | ≤ -4.2 |
| A39C C85U | -2.48 |
| A41G U53A U55A A91U C99A U148A | ≤ -4.2 |
| A39G G48A G59A C96U U102G G128C G141A U144G | ≤ -4.2 |
| A41G A52G U77G C87U G100C C103G A138G | ≤ -4.2 |
| C38U C95A A120G G141C | -1.16 |
| A41C C57A G92A C93A C105U A115C G124A U144A | ≤ -4.2 |
| A41C C76A C85G C99A | ≤ -4.2 |
| A40C C85U G124U | -0.182 |
| A40U A64G C75U A97G | ≤ -4.2 |
| A39G G81A C96G | -3.28 |
| A39U G59C U146G A150G | -3.66 |
| A41C C87U U102A U109C G136A A138U | ≤ -4.2 |
| A40U C96U C118U | -0.191 |
| A39G G84A G136U | -4.02 |
| A40G U53A C54U U82G C87A A89G A137U A138U U145A | ≤ -4.2 |
| A39U A47G U78A A97U | ≤ -4.2 |
| A40C A52U U111C A119U U139G U151G | ≤ -4.2 |
| A39G G42A G81U C87A G94U | ≤ -4.2 |
| A40U G83A C95A A115U G128U C129A | ≤ -4.2 |
| A41C | -0.379 |
| A41G | 0.583 |
| A39U U104G | -3.71 |
| A39U G50U U139G | -2.97 |

| Variant | polymerase ribozyme fitness (log ratio) |
| --- | --- |
| A39U G46U A47C A52C C87U A98G U104G C114A C125U | ≤ -4.2 |
| A39C G70C A97G | ≤ -4.2 |
| A40G G46U G84U C87U A97U U144A | ≤ -4.2 |
| A41C A66U U135A | ≤ -4.2 |
| A40U U56G C72U A91G | -3.52 |
| A40C A47U C85G A89G U148G | ≤ -4.2 |
| A40C G50C G80C A97U U134A U145G | ≤ -4.2 |
| A40C C51U U55G G74C A89C G92A | ≤ -4.2 |
| A41C C79U C95U | -3.78 |
| A41C G42A A49G G88C U135A | ≤ -4.2 |
| A41G G74C C75U C76A A91C G92U U134A G141C | ≤ -4.2 |
| C38U G50U G80C C85U | ≤ -4.2 |
| A41G C93A A147C | -1.52 |
| A41C G50A C96U | -1.93 |
| A39C G48C G59U A60U A66G G71A C96U U101G U151A | ≤ -4.2 |
| A41C C75U G92C A150U | -2.91 |
| A40U G50C A91G U104A | ≤ -4.2 |
| A41C G42U A73U G83U U102G G124C A150G | ≤ -4.2 |
| A40C A41C C43U U55G C72U C96U A120U G124C | ≤ -4.2 |
| A41C U44G G46C G84C C123G G128A U145A | ≤ -4.2 |
| A39G A60C G84A C87G C95G C118G U145G | ≤ -4.2 |
| A40G G48A C125A | ≤ -4.2 |
| A40G C54G G74A G83C C105G | ≤ -4.2 |
| A40G U56A G86A | -3.13 |

| Variant | polymerase ribozyme fitness (log ratio) |
| --- | --- |
| A40G U45A U55G G68C A91C U102G G126A C149G | ≤ -4.2 |
| A39U U77A U78G C85G G86A | ≤ -4.2 |
| A39U G70C G80U C87G C93U U134C | ≤ -4.2 |
| A40C C99U A137U U146A | -4.14 |
| A40G U61C G92U U145G | ≤ -4.2 |
| A39U C99U U146G | -2.56 |
| A40G C87U A115G | -3.19 |
| A41C G67A | -3.93 |
| A41C C57U | -0.124 |
| A40U A91G C116U A121U | -2.66 |
| A41G A60U A121C U144A | -1.13 |
| A41G C43A G59C | ≤ -4.2 |
| A41C G50A A89U A113U A115G U146A | -4.05 |
| A40C U44A A49C G65A C75G G84U C118U G128U U130C | ≤ -4.2 |
| A41C G67C C85A C131U A137G | ≤ -4.2 |
| A39C G83U A138C | -4.18 |
| A41C A66G G70A A91U C93U C96G | ≤ -4.2 |
| A40C C87G G94U C95G C118G | ≤ -4.2 |
| C38U C93A | -2.86 |
| A39G G70C G92C U135G U145G U148A | ≤ -4.2 |
| A40U G86U | -1.77 |
| A41G C54U | 0.979 |
| A39U A52U G83A U109G | ≤ -4.2 |
| A41C A91G G141U | -2.56 |

| Variant | polymerase ribozyme fitness (log ratio) |
| --- | --- |
| C38U U56A A120G G126U U145C U146G | -3.34 |
| A39U C54U A60U C75G C79A U90A | ≤ -4.2 |
| A39C U78A G84U U90C | ≤ -4.2 |
| A40C G88A A91G U144G | ≤ -4.2 |
| A40U G46A C85A A115G A120G | -4.09 |
| C38U U90C U109C C116A C125G U146G | ≤ -4.2 |
| A39G G58A U145G | -1.12 |
| C38U G83U | -0.752 |
| C38U U56A A60G U78A C79G C85A A119C U135G U151A | ≤ -4.2 |
| A39G G46A U56A C93U C108A | ≤ -4.2 |
| A39C U55A C149U | -3.62 |
| A40C A52G | 0.882 |
| A39C G86U A91C A150U | ≤ -4.2 |
| A41C C87U A142G | -1.45 |
| A39U G86A U102G C103G A106C | ≤ -4.2 |
| A39U A138C A150G | -4.1 |
| A39G G84A | -1.84 |
| A40U C103A U139G U146A | -2.67 |
| A40U C114G | -3.04 |
| A41G G70A C93U A98U | -3.95 |
| A40U U82G G84U C93A C99A U109G G136U | ≤ -4.2 |
| A41C A49G C51A G71U C93A C95U U111G | ≤ -4.2 |
| C38U U44C C54U G94A C131U U139A U144C | ≤ -4.2 |
| C38U U61C C87U C96G G136U | ≤ -4.2 |

| Variant | polymerase ribozyme fitness (log ratio) |
| --- | --- |
| C38U G65U G71U U90C C114U U135C U146A | ≤ -4.2 |
| A41C G62A G65C A89C C95G U151A | ≤ -4.2 |
| A40C C57A G68A G86U A121U | ≤ -4.2 |
| A40G A49C U53A | ≤ -4.2 |
| A40C C54A G59C C87U | -2.96 |
| A40U A41C A60G A98U A150U | 0.591 |
| A40U C57U G68C A107G C108U U139A | ≤ -4.2 |
| A40G A98G A113C | ≤ -4.2 |
| A40G G84A C85G A106G | ≤ -4.2 |
| C38U G59C C95U A98U C103G U148G | ≤ -4.2 |
| A40C A89U C96U C114U G128C U145G | ≤ -4.2 |
| A40C G42U | ≤ -4.2 |
| A39C C54A G94A C123U U139A | ≤ -4.2 |
| A40U C57A A73U C95U U135G C149G | ≤ -4.2 |
| A40C U44A U55A C57A C76A | ≤ -4.2 |
| A41C C63G G86A A115C | -2.61 |
| A40G G67A G94A G100A A107U | ≤ -4.2 |
| A41G G92A C99U G126C C149A | ≤ -4.2 |
| A40C G141U | 1.43 |
| A40U A41U C57U C108U G143U | ≤ -4.2 |
| A40G A60C C105G A138C A147U | ≤ -4.2 |
| A39U A89G | -2.99 |
| A40G G59A G68U | ≤ -4.2 |
| A41C U55C U56A C75A G83C C131A U135C | ≤ -4.2 |

| Variant | polymerase ribozyme fitness (log ratio) |
| --- | --- |
| A40G G59A U78A G94A C108U | ≤ -4.2 |
| A39G A49G C69U C123G G140C G141U | ≤ -4.2 |
| A41G U53A G59C A98G U102C G133A | ≤ -4.2 |
| A40U C93A U148A | ≤ -4.2 |
| A40C G42C G80U | ≤ -4.2 |
| C38U G58C G65A A119G A147C | -2.82 |
| A40U C51G | -1.26 |
| A40U C51A | -0.707 |
| A40G C85G | -3.63 |
| A41C A52C | -1.97 |
| A39G C57G | -2.43 |
| A40C G42U C51G G67A C76A G86C A89U U127G | ≤ -4.2 |
| A39G U56G A66U G86U A107C | -3.99 |
| A40G U55A | -2 |
| A41C U53A C63U C76A | ≤ -4.2 |
| A40C G65A A73U A98U | ≤ -4.2 |
| A39U C43A U44A U56G G59C G94A C103G U144A | ≤ -4.2 |
| A39C G65A A66C C85A G88C G140U | ≤ -4.2 |
| A41G A49C U55C C69A C85U C108U | ≤ -4.2 |
| A41G A66C A89C G92U A97U G124U | ≤ -4.2 |
| A40C G68U C99A U130G | ≤ -4.2 |
| A41G U55A C57G | 0.000485 |
| A40C U55A | 0.494 |
